B1: NLV3 TCR beta chain (CDR3β only) (parent)
chain: ASSPTGGSPSPLH
partner: MLVPMVATV

This test covers variants of B1. Put plainly: T-Switch: Jurkat TCRβ−/− cells expressing a CDR3 saturation-mutagenesis library, stained with two peptide-HLA-A*02:01 tetramers (original and novel peptide) plus anti-CD3, FACS-sorted into four gates, gDNA sequenced. To be noted: with HLA-A*02:01 with peptide … (NLV 3-1, the original bait), tetramers 1 µg/mL, 30 min on ice, DP and SW gates expanded about 10 days between rounds ('two to three rounds of selection' in the Methods), gate SP: higher = more of the variant in the gate that binds the original peptide and not the novel one = retained original binding. Fold enrichment of the CDR3 variant in one FACS gate of a two-tetra, unresolved parent, parent is a CDR3 fragment, scale: fold enrichment, numbering: sequential-on-construct, sequence ….
Turning to […] (CDR3 as printed); S3H derived by comparing it with the table's wild-type CDR3 ASSPTGGSPSPLH, the enrichment is 0.783.
Take […] (CDR3 as printed); P9H derived by comparing it with the table's wild-type CDR3 ASSPTGGSPSPLH: the enrichment was 0.
For […] (CDR3 as printed); S2F derived by comparing it with the table's wild-type CDR3 ASSPTGGSPSPLH the value was 3.1; for […] (CDR3 as printed); P9L derived by comparing it with the table's wild-type CDR3 ASSPTGGSPSPLH, 1.13.
The figure for […] (CDR3 as printed); P11D derived by comparing it with the table's wild-type CDR3 ASSPTGGSPSPLH is 0.
Regarding […] (CDR3 as printed); S2Y derived by comparing it with the table's wild-type CDR3 ASSPTGGSPSPLH, the enrichment worked out at 0.
The figure for […] (CDR3 as printed); S10C derived by comparing it with the table's wild-type CDR3 ASSPTGGSPSPLH is 0.
For […] (CDR3 as printed); P4W derived by comparing it with the table's wild-type CDR3 ASSPTGGSPSPLH the value was 0.
For […] (CDR3 as printed); S10E derived by comparing it with the table's wild-type CDR3 ASSPTGGSPSPLH the value was 5.53.
Turning to […] (CDR3 as printed); S2A derived by comparing it with the table's wild-type CDR3 ASSPTGGSPSPLH, the enrichment was 3.53.
For […] (CDR3 as printed); P4Y derived by comparing it with the table's wild-type CDR3 ASSPTGGSPSPLH the value was 1.03; for […] (CDR3 as printed); S3N derived by comparing it with the table's wild-type CDR3 ASSPTGGSPSPLH, 4.09; for […] (CDR3 as printed); S3C derived by comparing it with the table's wild-type CDR3 ASSPTGGSPSPLH, 11.2.
With […] (CDR3 as printed); T5G derived by comparing it with the table's wild-type CDR3 ASSPTGGSPSPLH, the enrichment worked out at 0.
For […] (CDR3 as printed); P4G derived by comparing it with the table's wild-type CDR3 ASSPTGGSPSPLH the value was 0.
As to […] (CDR3 as printed); L12V derived by comparing it with the table's wild-type CDR3 ASSPTGGSPSPLH, the enrichment was determined as 0.
The figure for […] (CDR3 as printed); S10V derived by comparing it with the table's wild-type CDR3 ASSPTGGSPSPLH is 0.
As for […] (CDR3 as printed); S10L derived by comparing it with the table's wild-type CDR3 ASSPTGGSPSPLH, the enrichment turned out to be 8.65.
With […] (CDR3 as printed); S10N derived by comparing it with the table's wild-type CDR3 ASSPTGGSPSPLH, the enrichment was determined as 0.
Consider […] (CDR3 as printed); P9W derived by comparing it with the table's wild-type CDR3 ASSPTGGSPSPLH, for which the enrichment was 0.
The figure for […] (CDR3 as printed); S2P derived by comparing it with the table's wild-type CDR3 ASSPTGGSPSPLH is 0; for […] (CDR3 as printed); S8T derived by comparing it with the table's wild-type CDR3 ASSPTGGSPSPLH it is 0.
The figure for […] (CDR3 as printed); P11Y derived by comparing it with the table's wild-type CDR3 ASSPTGGSPSPLH is 1.78; for […] (CDR3 as printed); L12I derived by comparing it with the table's wild-type CDR3 ASSPTGGSPSPLH it is 1.14.
For […] (CDR3 as printed); T5F derived by comparing it with the table's wild-type CDR3 ASSPTGGSPSPLH the value was 12.8.
Turning to […] (CDR3 as printed); P9I derived by comparing it with the table's wild-type CDR3 ASSPTGGSPSPLH, the enrichment was 0.
For the variant […] (CDR3 as printed); S2V derived by comparing it with the table's wild-type CDR3 ASSPTGGSPSPLH, the enrichment was found to be 1.18.
In the case of […] (CDR3 as printed); S10M derived by comparing it with the table's wild-type CDR3 ASSPTGGSPSPLH, the enrichment was 9.51.
For […] (CDR3 as printed); S2R derived by comparing it with the table's wild-type CDR3 ASSPTGGSPSPLH the value was 0; for […] (CDR3 as printed); S2I derived by comparing it with the table's wild-type CDR3 ASSPTGGSPSPLH, 0; for […] (CDR3 as printed); S8N derived by comparing it with the table's wild-type CDR3 ASSPTGGSPSPLH, 0.
For […] (CDR3 as printed); S10I derived by comparing it with the table's wild-type CDR3 ASSPTGGSPSPLH the value was 0; for […] (CDR3 as printed); S8H derived by comparing it with the table's wild-type CDR3 ASSPTGGSPSPLH, 0; for […] (CDR3 as printed); S8C derived by comparing it with the table's wild-type CDR3 ASSPTGGSPSPLH, 0.
For […] (CDR3 as printed); S3L derived by comparing it with the table's wild-type CDR3 ASSPTGGSPSPLH the value was 0.
Consider […] (CDR3 as printed); T5V derived by comparing it with the table's wild-type CDR3 ASSPTGGSPSPLH, for which the enrichment is 19.2.
For […] (CDR3 as printed); T5C derived by comparing it with the table's wild-type CDR3 ASSPTGGSPSPLH the value was 0; for […] (CDR3 as printed); T5P derived by comparing it with the table's wild-type CDR3 ASSPTGGSPSPLH, 0.
For […] (CDR3 as printed); P9N derived by comparing it with the table's wild-type CDR3 ASSPTGGSPSPLH, the enrichment came to 0.
Turning to […] (CDR3 as printed); P9V derived by comparing it with the table's wild-type CDR3 ASSPTGGSPSPLH, the enrichment amounted to 3.5.
[…] (CDR3 as printed); L12Q derived by comparing it with the table's wild-type CDR3 ASSPTGGSPSPLH: the enrichment came to 0.
For […] (CDR3 as printed); S3Q derived by comparing it with the table's wild-type CDR3 ASSPTGGSPSPLH the value was 0; for […] (CDR3 as printed); T5D derived by comparing it with the table's wild-type CDR3 ASSPTGGSPSPLH, 0; for […] (CDR3 as printed); S3M derived by comparing it with the table's wild-type CDR3 ASSPTGGSPSPLH, 0.
For […] (CDR3 as printed); S2M derived by comparing it with the table's wild-type CDR3 ASSPTGGSPSPLH the value was 0; for […] (CDR3 as printed); P11A derived by comparing it with the table's wild-type CDR3 ASSPTGGSPSPLH, 7.15; for […] (CDR3 as printed); S8R derived by comparing it with the table's wild-type CDR3 ASSPTGGSPSPLH, 0.
For […] (CDR3 as printed); S2Q derived by comparing it with the table's wild-type CDR3 ASSPTGGSPSPLH the value was 0; for […] (CDR3 as printed); P11K derived by comparing it with the table's wild-type CDR3 ASSPTGGSPSPLH, 8.18; for […] (CDR3 as printed); S8P derived by comparing it with the table's wild-type CDR3 ASSPTGGSPSPLH, 0.

For the origin of these results see article PMC13397619.
